The values below come from patent US20170306033A1 (Amgen, published 2017).

Positions count from the first letter of the chain named.

To fix the notation:
T1: human PAC1 receptor (human, UniProt P41586 21-468)
T1 sequence: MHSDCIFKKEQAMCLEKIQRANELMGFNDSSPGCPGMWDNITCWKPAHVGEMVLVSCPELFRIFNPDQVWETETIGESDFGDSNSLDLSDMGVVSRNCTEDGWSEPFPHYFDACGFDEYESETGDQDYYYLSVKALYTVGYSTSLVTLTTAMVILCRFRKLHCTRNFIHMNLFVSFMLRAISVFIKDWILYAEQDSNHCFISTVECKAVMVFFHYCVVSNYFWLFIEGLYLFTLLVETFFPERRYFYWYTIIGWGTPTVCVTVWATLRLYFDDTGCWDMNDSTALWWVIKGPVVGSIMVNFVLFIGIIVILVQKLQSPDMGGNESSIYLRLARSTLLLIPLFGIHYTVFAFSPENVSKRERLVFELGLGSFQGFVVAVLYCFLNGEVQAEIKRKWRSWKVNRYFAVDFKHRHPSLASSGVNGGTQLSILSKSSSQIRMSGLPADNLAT

B1: iPS:327729 (bispecific antibody, human IgG1, kappa, lambda, N297G)
light 1: DIQLTQSPSFLSASVGDRVTITCRASQSIGRSLHWYQQKPGKAPKLLIKYASQSLSGVPSRFSGSGSGTEFTLTISSLQPEDFATYYCHQSSRLPFTFGPGTKVDIKRTVAAPSVFIFPPSDEQLKSGTASVVCLLNNFYPREAKVQWKVDNALQSGNSQESVTEQDSKDSTYSLESTLTLSKADYEKHKVYACEVTHQGLSSPVTKSFNRGEC
heavy 1: not shown
light 2: QSVLTQPPSVSAAPGQKVTISCSGSSSNIGNNYVSWYQQLPGTAPKLLIYDNNKRPSGIPDRFSGSKSGTSATLAITGLQTGDEADYYCGTWDSRLSAVVFGGGTKLTVLGQPKANPTVTLFPPSSEELQANKATLVCLISDFYPGAVTVAWKADGSPVKAGVETTKPSKQSNNKYAAKSYLSLTPEQWKSHRSYSCQVTHEGSTVEKTVAPTECS
heavy 2: QVQLVESGGGVVQPGRSLRLSCAASGFTFSSFGMHWVRQAPGKGLEWVAVISFDGSIKYSVDSVKGRFTISRDNSKNTLFLQMNSLRAEDTAVYYCARDRLNYYDSSGYYHYKYYGMAVWGQGTTVTVSSASTKGPSVFPLAPSSKSTSGGTAALGCLVKDYFPEPVTVSWNSGALTSGVHTFPAVLQSSGLYSLESVVTVPSSSLGTQTYICNVNHKPSNTKVDKKVEPKSCDKTHTCPPCPAPELLGGPSVFLFPPKPKDTLMISRTPEVTCVVVDVSHEDPEVKFNWYVDGVEVHNAKTKPCEEQYGSTYRCVSVLTVLHQDWLNGKEYKCKVSNKALPAPIEKTISKAKGQPREPQVYTLPPSRKKMTKNQVSLTCLVKGFYPSDIAVEWESNGQPENNYKTTPPVLKSDGSFFLYSKLTVDKSRWQQGNVFSCSVMHEALHNHYTQKSLSLSPGK
B2: iPS:327719 (bispecific antibody, human IgG1, kappa, lambda, N297G)
light 1: B1 light 1
heavy 1: not shown
light 2: B1 light 2
heavy 2: B1 heavy 2 with K370E
B3: iPS:327731 (bispecific antibody, human IgG1, kappa, lambda, N297G)
light 1: not shown
heavy 1: not shown
light 2: B1 light 2 with A75G
heavy 2: B1 heavy 2 with D105E, K370E
B4: iPS:327724 (bispecific antibody, human IgG1, kappa, lambda, N297G)
light 1: not shown
heavy 1: not shown
light 2: B1 light 2 with G103K
heavy 2: B1 heavy 2 with G44E, K370E
B5: iPS:327725 (bispecific antibody, human IgG1, kappa, lambda, N297G)
light 1: B1 light 1 with P100E
heavy 1: not shown
light 2: B1 light 2 with G103K
heavy 2: B1 heavy 2 with G44E, K370E
B6: iPS:327732 (bispecific antibody, human IgG1, kappa, lambda, N297G)
light 1: not shown
heavy 1: not shown
light 2: B1 light 2 with A75G
heavy 2: B1 heavy 2 with D105E, K370E
B7: iPS:327733 (bispecific antibody, human IgG1, kappa, lambda, N297G)
light 1: B1 light 1
heavy 1: not shown
light 2: B1 light 2 with A75G
heavy 2: B1 heavy 2 with D105E, K370E
B8: iPS:327718 (bispecific antibody, human IgG1, kappa, lambda, N297G)
light 1: not shown
heavy 1: not shown
light 2: B1 light 2
heavy 2: B1 heavy 2 with K370E
B9: iPS:327870 (bispecific antibody, human IgG2, kappa, lambda)
light 1: not shown
heavy 1: QVQLQQSGPGLVKPSQTLSLTCAISGDSVSSNSATWNWIRQSPSRGLEWLGRTYYRSKWSNHYAVSVKSRITINPDTSKSQFSLQLNSVTPEDTAVYYCARGTWKQLWFLDHWGQGTLVTVSSASTKGPSVFPLAPCSRSTSESTAALGCLVKDYFPEPVTVSWNSGALTSGVHTFPAVLQSSGLYSLKSVVTVPSSNFGTQTYTCNVDHKPSNTKVDKTVERKCCVECPPCPAPPVAGPSVFLFPPKPKDTLMISRTPEVTCVVVDVSHEDPEVQFNWYVDGVEVHNAKTKPREEQFNSTFRVVSVLTVVHQDWLNGKEYKCKVSNKGLPAPIEKTISKTKGQPREPQVYTLPPSREEMTKNQVSLTCLVDGFYPSDIAVEWESNGQPENNYDTTPPMLDSDGSFFLYSDLTVDKSRWQQGNVFSCSVMHEALHNHYTQKSLSLSPGK
light 2: B1 light 2 with A72T, A75G
heavy 2: QVQLVESGGGVVQPGRSLRLSCAASGFTFSSFGMHWVRQAPGKGLEWVAVISFDGSIKYSVDSVKGRFTISRDNSKNTLFLQMNSLRAEDTAVYYCARDRLNYYDSSGYYHYKYYGMAVWGQGTTVTVSSASTKGPSVFPLAPCSRSTSESTAALGCLVKDYFPEPVTVSWNSGALTSGVHTFPAVLQSSGLYSLESVVTVPSSNFGTQTYTCNVDHKPSNTKVDKTVERKCCVECPPCPAPPVAGPSVFLFPPKPKDTLMISRTPEVTCVVVDVSHEDPEVQFNWYVDGVEVHNAKTKPREEQFNSTFRVVSVLTVVHQDWLNGKEYKCKVSNKGLPAPIEKTISKTKGQPREPQVYTLPPSRKKMTKNQVSLTCLVKGFYPSDIAVEWESNGQPENNYKTTPPMLKSDGSFFLYSKLTVDKSRWQQGNVFSCSVMHEALHNHYTQKSLSLSPGK
B10: iPS:327730 (bispecific antibody, human IgG1, kappa, lambda, N297G)
light 1: EIVLTQSPATLSLSPGERATLSCRASQSVGRSLHWYQQKPGQAPRLLIKYASQSLSGIPARFSGSGSGTDFTLTISSLEPEDFAVYYCHQSSRLPFTFGPGTKVDIKRTVAAPSVFIFPPSDEQLKSGTASVVCLLNNFYPREAKVQWKVDNALQSGNSQESVTEQDSKDSTYSLESTLTLSKADYEKHKVYACEVTHQGLSSPVTKSFNRGEC
heavy 1: not shown
light 2: B1 light 2
heavy 2: B1 heavy 2
B11: iPS:327721 (bispecific antibody, human IgG1, kappa, lambda, N297G)
light 1: B10 light 1
heavy 1: not shown
light 2: B1 light 2
heavy 2: B1 heavy 2 with K370E
B12: iPS:327722 (bispecific antibody, human IgG1, kappa, lambda, N297G)
light 1: DIQMTQSPSSLSASVGDRITITCRASQSISRYLNWYQQKPGKAPKLLIYAASSLQSGIPSRFSGSGSGTDFTLTINSLQPEDFATYFCQQSYSPPFTFGEGTKVDIKRTVAAPSVFIFPPSDEQLKSGTASVVCLLNNFYPREAKVQWKVDNALQSGNSQESVTEQDSKDSTYSLESTLTLSKADYEKHKVYACEVTHQGLSSPVTKSFNRGEC
heavy 1: not shown
light 2: B1 light 2 with G103K
heavy 2: B1 heavy 2 with G44E, K370E
B13: iPS:327734 (bispecific antibody, human IgG1, kappa, lambda, N297G)
light 1: B10 light 1
heavy 1: not shown
light 2: B1 light 2 with A75G
heavy 2: B1 heavy 2 with D105E, K370E

Chain of human CGRP receptor (Q16602 23-461 limits assumed, chain 1 of 2): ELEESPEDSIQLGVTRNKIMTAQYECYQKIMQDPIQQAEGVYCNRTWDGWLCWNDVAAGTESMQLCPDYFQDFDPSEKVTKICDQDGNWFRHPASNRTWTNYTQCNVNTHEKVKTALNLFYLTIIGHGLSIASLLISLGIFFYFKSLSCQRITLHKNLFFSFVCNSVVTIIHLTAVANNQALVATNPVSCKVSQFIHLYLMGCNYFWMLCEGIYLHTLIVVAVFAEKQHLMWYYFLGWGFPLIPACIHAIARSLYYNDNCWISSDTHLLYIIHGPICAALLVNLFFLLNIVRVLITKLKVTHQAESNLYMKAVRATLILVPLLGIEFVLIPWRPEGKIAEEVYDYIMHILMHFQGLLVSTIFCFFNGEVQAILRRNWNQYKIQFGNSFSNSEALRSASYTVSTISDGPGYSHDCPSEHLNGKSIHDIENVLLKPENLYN
Chain of human CGRP receptor (O60894 27-148 limits assumed, chain 2 of 2): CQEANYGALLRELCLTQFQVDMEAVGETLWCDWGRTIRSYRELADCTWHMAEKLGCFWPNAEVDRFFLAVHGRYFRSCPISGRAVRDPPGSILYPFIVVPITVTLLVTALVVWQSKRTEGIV

The first test concerns the target human CGRP receptor (human, UniProt Q16602 23-461; O60894 27-148). The experiment in a line: cell-based or functional assay.
For the molecule B1, the “% inhibition of human CGRPR” value came out at 84%.
In the case of B2, the “% inhibition of human CGRPR” value is 85%.
On to B3, for which the “% inhibition of human CGRPR” value was determined as 74%.
Still for that read-out and setting: the value for B4 was 80%; that for B5 was 86%; that for B6 was 69%.
As to B7, the “% inhibition of human CGRPR” value came to 84%.
For the molecule B8, the “% inhibition of human CGRPR” value was 78%.
Take B9: the “% inhibition of human CGRPR” value was found to be 67%.
The same measure, in the same setting: the same measure for B10: 87%; for B11: 81%.
Still for that read-out and setting: the value for B12 was 82%; that for B13 was 82%.

The target in another test is T1, human PAC1 receptor. Description: cell-based or functional assay.
On to B1, for which the “% inhibition of human PAC1” value was 85%.
Same read-out and setting: the same measure for B2: 59%; for B3: 74%.
On to B4, for which the “% inhibition of human PAC1” value came to 33%.
On the same count and under the same terms, the same measure for B5: 39%; for B6: 56%; for B7: 66%.
Same read-out and setting: the value for B8 was 70%; that for B9 was 86%; that for B10 was 101%.
The same measure, in the same setting: the same measure for B11: 99%; for B12: 38%; for B13: 99%.
